Measurements from paper PMC8716364, “A Redox-Sensitive Cysteine Is Required for PIN1At Function” (Frontiers in Plant Science, 2021).

How the values were obtained:
Cys69 = Cys69 (UniProt position 69, TRVSDCSSAKR); assay: chemical modification; conditions: 25 °C; sodium citrate or phosphate buffer (concentration not stated); reduced (DTT-treated and desalted), free enzyme, monomer
[1] = target: the molecule itself; assay: SEC-MALS; 76 μM (300 μg) reduced PIN1At incubated 30 min with 100 μM to 2.5 mM H2O2, 30 mM Tris-HCl pH 8.0, 200 mM NaCl, Superdex200 10/300; disulfide-bridged dimer
[2] = target: the molecule itself; assay: non-reducing SDS-PAGE after alkylation with mPEG-maleimide; 20 μM reduced PIN1At with 25- or 100-fold excess H2O2 (500 μM or 2 mM), 30 min, TE buffer; one sample then 10 mM DTT 30 min; free thiols alkylated with 2 kDa mPEG-maleimide, non-reducing 15% SDS-PAGE

Molecule: PIN1At (PAR1), peptidyl-prolyl cis-trans isomerase Pin1, single-domain parvulin (Arabidopsis thaliana)
- pKa (Cys69): 4.9±0.1

B1: Arabidopsis PIN1At, untagged recombinant protein (enzyme, Arabidopsis thaliana, UniProt Q9SL42 2-119, looked up)
chain: ASRDQVKASHILIKHQGSRRKASWKDPEGKIILTTTREAAVEQLKSIREDIVSGKANFEEVATRVSDCSSAKRGGDLGSFGRGQMQKPFEEATYALKVGDISDIVDTDSGVHIIKRTA
notes: Single cysteine, Cys69; the printed masses (12.3 kDa, 12,882.7 Da; theoretical 13,014.7 Da) fit the untagged protein; also called PAR1; PIN1At/PAR1; source: E. coli BL21 (DE3) with pSBET, pET12a, purified (ammonium sulfate, ACA44 gel filtration, DEAE-Sephacel)
- stoichiometry N [1]: 2

B2: Arabidopsis PIN1At, N-terminal His-tagged recombinant protein (enzyme, Arabidopsis thaliana, UniProt Q9SL42 1-119, looked up)
chain: MASRDQVKASHILIKHQGSRRKASWKDPEGKIILTTTREAAVEQLKSIREDIVSGKANFEEVATRVSDCSSAKRGGDLGSFGRGQMQKPFEEATYALKVGDISDIVDTDSGVHIIKRTA
notes: also called His-tagged PIN1At; not shown: His6, N-terminal, kept
- binding result [2]: binds
